Source: patent US20160046672A1, “STAPLING eIF4E INTERACTING PEPTIDES” (AGENCY FOR SCIENCE, TECHNOLOGY AND RESEARCH, priority 2013, published 2016)
Positions of bridges follow the written chain, without caps; N, C: chain ends. Non-standard residues stand in square brackets, D forms with d. Residues, ends and D or L forms follow the SMILES beside them. S5 = C=CCCC[C@](C)(N)C(=O)O; Abu = CC[C@H](N)C(=O)O; Aib = CC(C)(N)C(=O)O

B1: TIP-01^F12& (peptide)
peptide: Ac-KKRYSR[Aib]FLL[Aib][Abu]-NH2
SMILES: CC[C@H](NC(=O)C(C)(C)NC(=O)[C@H](CC(C)C)NC(=O)[C@H](CC(C)C)NC(=O)[C@H](Cc1ccccc1)NC(=O)C(C)(C)NC(=O)[C@H](CCCNC(=N)N)NC(=O)[C@H](CO)NC(=O)[C@H](Cc1ccc(O)cc1)NC(=O)[C@H](CCCNC(=N)N)NC(=O)[C@H](CCCCN)NC(=O)[C@H](CCCCN)NC(C)=O)C(N)=O
notes: Printed KKRYSRXFLLX&
B2: eIF4G^D5S (peptide)
peptide: Ac-KKRYSREFLLGF-NH2
notes: also called eIF4G1^D5S; linear template peptide
B3: TIP-04 (peptide)
peptide: Ac-KKRYSR[Aib]QLL[Aib]L-NH2
notes: Printed KKRYSRXQLLXL, X = AIB; also called AIB derivative of sTIP-04
B4: TIP-01^F8A (peptide)
peptide: Ac-KKRYSR[Aib]ALL[Aib]F-NH2
SMILES: CC(=O)N[C@@H](CCCCN)C(=O)N[C@@H](CCCCN)C(=O)N[C@@H](CCCNC(=N)N)C(=O)N[C@@H](Cc1ccc(O)cc1)C(=O)N[C@@H](CO)C(=O)N[C@@H](CCCNC(=N)N)C(=O)NC(C)(C)C(=O)N[C@@H](C)C(=O)N[C@@H](CC(C)C)C(=O)N[C@@H](CC(C)C)C(=O)NC(C)(C)C(=O)N[C@@H](Cc1ccccc1)C(N)=O
notes: Printed KKRYSRXALLXF, X = AIB

Assays:
[1] = Circular dichroism, percent α-helicity in solution; assay type: physicochemical; conditions: CD, 5 mM sodium phosphate buffer pH 7.0
Description: CD was measured on a JASCO J-810 spectropolarimeter, and spectra were either recorded with a quartz cuvette (Helmer) with a pathlength of 0.01 cm or 0.1 cm in 5 mM sodium phosphate buffer (pH 7.0). FUV CD spectra were recorded from 260 nm to 200 nm at a peptide concentration of either 2 mg/ml or 0.5 mg/ml, respectively. The CD signal was converted into mean residue ellipticity in units of degree·cm^2·dmol^−1·residue^−1. CD spectra were recorded at a data pitch of 0.2 nm at 50 nm min^−1, a response time of 2 s, and a bandwidth of […]. Once converted to mean residue ellipticity, percent α-helicity can be calculated with equation (1) and (2): […]

circular dichroism = conditions: 5 mM sodium phosphate; pH 7.0; ns °C; 0.5 or 2 mg/mL
eIF4E = biological target: T1, eIF4E (Homo sapiens, UniProt P06730); experiment: eIF4E affinity (SPR/FP, method not named); assay type: binding
T1 construct: made in house
T1 sequence (P06730 whole entry): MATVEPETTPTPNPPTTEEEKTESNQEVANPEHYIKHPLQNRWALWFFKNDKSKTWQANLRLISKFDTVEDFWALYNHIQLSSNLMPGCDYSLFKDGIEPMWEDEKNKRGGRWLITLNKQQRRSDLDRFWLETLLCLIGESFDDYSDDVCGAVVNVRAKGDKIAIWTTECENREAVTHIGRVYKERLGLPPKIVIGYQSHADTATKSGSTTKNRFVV
Description: (§1) Apparent Kd values were determined for a variety of molecules via competitive anisotropy anisotropy experiments. Titrations were carried out with the concentrations eIF4E held constant at 200 nM, respectively and the labeled peptide at 50 nM. The competing molecules were then titrated against complex of the FAM labeled peptide and protein. Apparent Kd values were determined by fitting the experimental data to the equations shown below: […]
(§2) Six buffer blanks were first injected to equilibrate the instrument fully and then a solvent correction curve was performed followed by a further two blank injections. […] Using a flow rate of 50 μl/min, compounds were injected for 60 s and dissociation was monitored for 180 s. The data collection rate was 10 Hz. Kds were determined using the BiaEvaluation software (Biacore) and calculated kinetically from the dissociation and association phase data for each of the peptides. The kinetic data were fitted to 1:1 binding models. Each individual peptide Kd was determined from three separate titrations. Within each titration at least two concentration points were duplicated to ensure stability and robustness of the chip surface.

[2] = biological target: T2, human eukaryotic translation initiation factor 4E (eIF4E), full-length (human, UniProt P06730 2-217); experiment: competitive fluorescence anisotropy (FP), displacement of FAM tracer from eIF4E, apparent Kd
T2 construct: mature; For SPR it was amine-coupled to a CM5 chip with m7GTP present in a 2:1 ratio. 'mature' is used here for full length; also called full length eIF4E
T2 sequence (P06730 2-217): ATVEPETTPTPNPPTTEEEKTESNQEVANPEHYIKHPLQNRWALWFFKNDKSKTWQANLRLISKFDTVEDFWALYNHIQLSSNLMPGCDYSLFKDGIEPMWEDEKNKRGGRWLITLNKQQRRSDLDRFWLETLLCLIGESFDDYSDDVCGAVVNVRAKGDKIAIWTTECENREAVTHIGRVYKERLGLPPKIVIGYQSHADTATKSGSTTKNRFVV
Description: as §1, with “The competing molecules were then titrated against complex of the FAM labeled peptide and protein.” left out

[3] = biological target: T2, human eukaryotic translation initiation …; experiment: SPR, Biacore T100, eIF4E immobilised on CM5, peptide as analyte, kinetic 1:1 fit
Description: For stock peptide solutions, the compounds were dissolved in 100% DMSO to a concentration of 10 mM; further dilutions of the peptide stock solutions into DMSO and/or running buffer were performed immediately prior to analysis. Running buffer consisted of 10 mM Hepes pH 7.6, 0.15M NaCl, 1 mM DTT and 0.1% Tween20. Stock/DMSO diluted peptide solutions were diluted into 1.03× running buffer to make a peptide solution with 3% DMSO final concentration. […] Surface Plasmon resonance experiments were performed on a Biacore T100 machine.
eIF4E was immobilized on a CM5 sensor chip. The CM5 chip was conditioned with a 6 s injection of 100 mM HCL, followed by a 6 s injection of 0.1% SDS and completed with a 6 s injection of 50 mM NaOH at a flow rate of 100 μl/min. […] Purified eIF4E was diluted with 10 mM sodium acetate buffer (pH 5.0) to a final concentration of 0.5 μM with m⁷ GTP present in a 2:1 ratio in order to stabilize eIF4E. The amount of eIF4E immobilized on the activated surface was controlled by altering the contact time of the protein solution and was approximately 1000 RU. After the immobilization of the protein, a 7-min injection (at 10 μl min⁻¹) of 1 M ethanolamine (pH 8.5) was used to quench excess active succinimide ester groups.
as §2, with “titrations.” for “titrations. Within each titration at least two concentration points were duplicated to ensure stability and robustness of the chip surface.”

Molecule | Helicity (%) [1] | helicity (circular dichroism) | other results
CC(=O)N[C@@H](CCCCN)C(=O)N[C@@H](CCCCN)C(=O)N[C@@H](CCCNC(=N)N)C(=O)N[C@@H](Cc1ccc(O)cc1)C(=O)N[C@@H](CO)C(=O)N[C@@H](CCCNC(=N)N)C(=O)N[C@@]1(C)CCCC=CCCC[C@@](C)(C(=O)N[C@@H](CC(C)C)C(N)=O)NC(=O)[C@H](CC(C)C)NC(=O)[C@H](CC(C)C)NC(=O)[C@H](CCC(N)=O)NC1=O (relative stereo) [sTIP-04, KKRYSR*QLL*L] | 63% | – | –
CC[C@H](NC(=O)C(C)(C)NC(=O)[C@H](CC(C)C)NC(=O)[C@H](CC(C)C)NC(=O)[C@H](Cc1ccccc1)NC(=O)C(C)(C)NC(=O)[C@H](CCCNC(=N)N)NC(=O)[C@H](CO)NC(=O)[C@H](Cc1ccc(O)cc1)NC(=O)[C@H](CCCNC(=N)N)NC(=O)[C@H](CCCCN)NC(=O)[C@H](CCCCN)NC(C)=O)C(N)=O [TIP-01^F12&, KKRYSRXFLLX&] (Ac-KKRYSR[Aib]FLL[Aib][Abu]-NH2) | 11% | 11% | –
Ac-KKRYSREFLLGF-NH2 [eIF4G^D5S, reference compound] | 0% | 0% | –
CC(=O)N[C@@H](CCCCN)C(=O)N[C@@H](CCCCN)C(=O)N[C@@H](CCCNC(=N)N)C(=O)N[C@@H](Cc1ccc(O)cc1)C(=O)N[C@@H](CO)C(=O)N[C@@H](CCCNC(=N)N)C(=O)N[C@@H](CCC(=O)O)C(=O)N[C@@]1(C)CCCC=CCCC[C@@](C)(C(N)=O)NC(=O)CNC(=O)[C@H](CC(C)C)NC(=O)[C@H](CC(C)C)NC1=O [sTIP-02, KKRYSRE*LLG*] | – | 18% | Kd (in words) (eIF4E): nanomolar range; affinity / binding to eIF4E (in words) (eIF4E): no improvement in binding over eIF4G^D5S
CC(=O)N[C@@H](CCCCN)C(=O)N[C@@H](CCCCN)C(=O)N[C@@H](CCCNC(=N)N)C(=O)N[C@@H](Cc1ccc(O)cc1)C(=O)N[C@@H](CO)C(=O)N[C@@H](CCCNC(=N)N)C(=O)N[C@@]1(C)CCCC=CCCC[C@@](C)(C(=O)N[C@@H](Cc2ccccc2)C(N)=O)NC(=O)[C@H](CC(C)C)NC(=O)[C@H](CC(C)C)NC(=O)[C@H](C)NC1=O (relative stereo) [sTIP-01^F8A, KKRYSR*ALL*F] | – | 80% | affinity / binding to eIF4E (in words) (eIF4E): improved Kd values as compared to sTIP-01
CC(=O)N[C@@H](CCCCN)C(=O)N[C@@H](CCCCN)C(=O)N[C@@H](CCCNC(=N)N)C(=O)N[C@@H](Cc1ccc(O)cc1)C(=O)N[C@@H](CO)C(=O)N[C@@H](CCCNC(=N)N)C(=O)N[C@@]1(C)CCCC=CCCC[C@@](C)(C(=O)N[C@@H](Cc2ccccc2)C(N)=O)NC(=O)[C@H](CC(C)C)NC(=O)[C@H](CC(C)C)NC(=O)[C@H](Cc2ccccc2)NC1=O (Ac-KKRYSR[S5]FLL[S5]F-NH2; staple 7-11) | – | 24% | –
CC[C@H](NC(=O)[C@]1(C)CCCC=CCCC[C@](C)(NC(=O)[C@H](CCCNC(=N)N)NC(=O)[C@H](CO)NC(=O)[C@H](Cc2ccc(O)cc2)NC(=O)[C@H](CCCNC(=N)N)NC(=O)[C@H](CCCCN)NC(=O)[C@H](CCCCN)NC(C)=O)C(=O)N[C@@H](Cc2ccccc2)C(=O)N[C@@H](CC(C)C)C(=O)N[C@@H](CC(C)C)C(=O)N1)C(N)=O (relative stereo) [sTIP-01^F12&, KKRYSR*FLL*&] | 44% | 44% | affinity / binding to eIF4E (in words) (eIF4E): improved Kd values as compared to sTIP-01
CC(=O)N[C@@H](CCCCN)C(=O)N[C@@H](CCCCN)C(=O)N[C@@H](CCCNC(=N)N)C(=O)N[C@@H](Cc1ccc(O)cc1)C(=O)N[C@@H](CO)C(=O)N[C@@H](CCCNC(=N)N)C(=O)NC(C)(C)C(=O)N[C@@H](CCC(N)=O)C(=O)N[C@@H](CC(C)C)C(=O)N[C@@H](CC(C)C)C(=O)NC(C)(C)C(=O)N[C@@H](CC(C)C)C(N)=O [TIP-04, KKRYSRXQLLXL] | 4% | 4% | –
CC(=O)N[C@@H](CCCCN)C(=O)N[C@@H](CCCCN)C(=O)N[C@@H](CCCNC(=N)N)C(=O)N[C@@H](Cc1ccc(O)cc1)C(=O)N[C@@H](CO)C(=O)N[C@@H](CCCNC(=N)N)C(=O)N[C@@]1(C)CCCC=CCCC[C@@](C)(C(N)=O)NC(=O)[C@H](CC(C)C)NC(=O)[C@H](CC(C)C)NC(=O)[C@H](Cc2ccccc2)NC1=O (Ac-KKRYSR[S5]FLL[S5]-NH2; staple 7-11) | – | 72% | –
CC(=O)N[C@@H](CCCCN)C(=O)N[C@@H](CCCCN)C(=O)N[C@@H](CCCNC(=N)N)C(=O)N[C@@H](Cc1ccc(O)cc1)C(=O)N[C@@H](CO)C(=O)N[C@@H](CCCNC(=N)N)C(=O)NC(C)(C)C(=O)N[C@@H](C)C(=O)N[C@@H](CC(C)C)C(=O)N[C@@H](CC(C)C)C(=O)NC(C)(C)C(=O)N[C@@H](Cc1ccccc1)C(N)=O [TIP-01^F8A, KKRYSRXALLXF] (Ac-KKRYSR[Aib]ALL[Aib]F-NH2) | 10% | 10% | –
CC(=O)N[C@@H](CCCCN)C(=O)N[C@@H](CCCCN)C(=O)N[C@@H](CCCNC(=N)N)C(=O)N[C@@H](Cc1ccc(O)cc1)C(=O)N[C@@H](CO)C(=O)N[C@@H](CCCNC(=N)N)C(=O)NC(C)(C)C(=O)N[C@@H](Cc1ccccc1)C(=O)N[C@@H](CC(C)C)C(=O)N[C@@H](CC(C)C)C(=O)NC(C)(C)C(=O)N[C@@H](Cc1ccccc1)C(N)=O (Ac-KKRYSR[Aib]FLL[Aib]F-NH2) | – | 2% | –
CC(=O)N[C@@H](CCCCN)C(=O)N[C@@H](CCCCN)C(=O)N[C@@H](CCCNC(=N)N)C(=O)N[C@@H](Cc1ccc(O)cc1)C(=O)N[C@@H](CO)C(=O)N[C@@H](CCCNC(=N)N)C(=O)NC(C)(C)C(=O)N[C@@H](Cc1ccccc1)C(=O)N[C@@H](CC(C)C)C(=O)N[C@@H](CC(C)C)C(=O)NC(C)(C)C(N)=O (Ac-KKRYSR[Aib]FLL[Aib]-NH2) | – | 7% | –
B1 | – | – | Kd [2]: 133 nM; Kd [3]: 111 nM
B2 | – | – | Kd [2]: 195 nM; Kd [3]: 99.9 nM
B3 | – | – | Kd [2]: 60 nM; Kd [3]: 22 nM
B4 | – | – | Kd [2]: 156 nM; Kd [3]: 117 nM
